# Measurements as given in patent US10961289B2, “Small molecules blocking histone reader domains” (The University of Copenhagen, priority 2015, dated 2021).
# Where no end group is shown, it is not given here.
# Target: T1, TONSL ARD (Homo sapiens, UniProt Q96HA7)
# T1 construct: GST (N); made in house; host or cells: E. coli BL21(DE3)-RIL
# T1 sequence (Q96HA7 512-692): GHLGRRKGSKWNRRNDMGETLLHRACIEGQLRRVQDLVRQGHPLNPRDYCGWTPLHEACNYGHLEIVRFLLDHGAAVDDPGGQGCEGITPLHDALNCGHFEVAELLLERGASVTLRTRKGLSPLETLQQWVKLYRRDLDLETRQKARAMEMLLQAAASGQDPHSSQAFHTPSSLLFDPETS
# Experiment: ITC of TONSL ARD binding to histone peptides
# Details: ITC (FIG. 13); for H4K20me1/2 also peptide pull-downs
# Experimental: All the ITC titrations were performed on a Microcal ITC 200 calorimeter at 25° C. […] The exothermic heat of the reaction was measured by 17 sequential 2.2 μl injections of the peptides (1.41 mM in buffer 20 mM Tris pH 7.5 and 0.5 M NaCl) into 200 μl of the TONSL ARD solution (145 μM in the same buffer), spaced at intervals of 150 s. The data were processed with Microcal Origin software and the curves were fit to a single […] binding model.
row,Substance,binding to TONSL ARD
1,"H4 tail (9-25): unmodified histone H4 peptide, residues 9-25 (KGLGKGGAKRHRKVLRD; listed as Homo sapiens)",can bind TONSL ARD
2,H4K20me1: histone H4 (residues 9-25) peptide with mono-methylation on Lys20 (GLGKGGAKRHRKVLRDN) [Example H4K20me1],incompatible with TONSL binding
3,H4K20me2: histone H4 (residues 9-25) peptide with di-methylation on Lys20 (GLGKGGAKRHRKVLRDN) [Example H4K20me2],incompatible with TONSL binding
4,H18W: histone H4 (residues 9-25) peptide with His18 mutated to Trp18 (GLGKGGAKRWRKVLRDN) [Example H18W],totally disrupts binding with TONSL ARD

# Target: T2, TONSL ARD (amino acid 512-692 of TONSL of SEQ ID NO: 16) (Homo sapiens, UniProt Q96HA7)
# T2 construct: GST (N, cleaved yes); made in house; host or cells: E. coli BL21(DE3)-RIL
# T2 sequence (Q96HA7 512-692): T1 sequence (Q96HA7 512-692)
# Experiment: Native MS analysis of protein-peptide complexes
# Assay type: binding
# Details: 10 μM TONSL-ARD, 50 mM NH4OAc pH 7.5
# Experimental: Various peptides were obtained including the peptides described in Examples 11, 12, 13, 14 and 15. If the peptide was in the form of a trifluoroacetate salt (TFA salt), it was desalted on a polymeric weak cation exchange sorbent (Strata X-CW, Phenomenex, Sartrouville, France): Dry peptide (1-3 μmol) were solubilized in 200 μL pure water (Sigma-Aldrich, Lyon, France). The pH of the solution was adjusted to 7-7.5 by addition of 1 mM aqueous ammonium hydroxide solution (solution freshly prepared from 20% concentrated ammonium hydroxide). The exchange column was conditioned with 1 mL methanol (Sigma-Aldrich, Lyon, France) followed by 1 mL water. The solution was injected and the column was washed twice with 500 μL pure water. Finally the peptide was eluted by gravity with 2 times 500 μL of a 20:80:5 acetonitrile/water/formic acid mixture. The elution fraction containing the expected peptide was identified by mass spectrometry. The TFA-free solution was freeze-dried to get a white solid. The solid was dissolved in 300 μL pure water and the solution was freeze-dried for a second time.
# A stock solution of the peptide was prepared by adding 300 μL of pure water to the resulting solid and the concentration of the solution was measured by UV at a wavelength of 205 nm. The extinction coefficient for the corresponding peptide sequence was calculated using the Nick Anthis online protein parameter calculator script (http://nickanthis.com/tools/a205.html). The absence of TFA adducts was confirmed by mass spectrometry with infusion of the protein-peptide mixture at low acceleration voltage (Vc 25 V) in native conditions.
# Purified TONSL ARD (i.e. amino acid 512-692 of TONSL of SEQ ID NO: 16) was buffer exchanged against 500 mM NH4OAc pH 7.5 using a NAP 5 column (NAP™-5, GE Healthcare). Bradford protein quantitation was performed on buffer exchanged protein. […]
# The mass spectrometry (MS) analysis were carried out on an electrospray time-of-flight mass spectrometer (LCT, Waters, Manchester, UK) equipped with an automated chip-based nanoESI device (Triversa Nanomate, Advion Biosciences, Ithaca, N.Y.). […] Mass spectra were recorded using reduced cone voltage (Vc=50 V) and elevated interface pressure (Pi=5 mbar) which correspond to fine-tuned instrumental settings providing sufficient ion desolvation while preserving the integrity of weak non-covalent complexes in the gas phase. […]
# The proportion of 1:1 stoichiometry complex is calculated according to the following equation: […]
# To estimate the binding affinities (Kd) of peptides for TONSL-ARD, a mixture of protein/peptide was analyzed at a constant peptide to protein ratio with decreasing protein concentration until the lowest detection limit was reached. […]
row,Substance,% P1L1 (proportion of 1:1 stoichiometry protein-peptide complex) [%]
1,AKRHRKVLR-NH2 [Example 12],62.6
2,KGGAARHRKVLR-NH2 [Example 15],81.4
3,KGGAKRHAKVLR-NH2 [Example 14],73.3
4,KGGAKRHRKVLR-NH2 [Example 13],89.9

# Target: T3, TONSL acidic stretch and ARD (450-692) (Homo sapiens, UniProt Q96HA7)
# T3 construct: ITC analysis of TONSL acidic stretch and ARD (aa. 450-692); made in house; host or cells: E. coli BL21(DE3)-RIL
# T3 sequence (Q96HA7 450-692): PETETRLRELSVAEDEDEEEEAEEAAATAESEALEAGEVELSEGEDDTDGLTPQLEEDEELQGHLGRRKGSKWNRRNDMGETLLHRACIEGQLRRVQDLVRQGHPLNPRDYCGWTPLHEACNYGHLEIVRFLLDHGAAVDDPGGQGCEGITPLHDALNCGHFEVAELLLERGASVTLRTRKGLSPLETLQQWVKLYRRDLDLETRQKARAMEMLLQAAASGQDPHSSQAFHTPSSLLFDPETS
# Experiment: ITC analysis of TONSL acidic stretch and ARD with histone peptides
# Assay type: binding
# Details: ITC (FIG. 35)
row,Substance,binding to TONSL (450-692)
1,H3K9me1 (1-21): histone H3K9me1 (aa. 1-21) peptide,does not bind
2,"H4 tail (9-25): unmodified histone H4 peptide, residues 9-25 (KGLGKGGAKRHRKVLRD; listed as Homo sapiens)",recognizes
